# B1: HCMV UL141 soluble ectodomain (residues 30-278) with C-terminal 8X His-Tag (domain or fragment)
# chain: SFPFATADIAEKMWAENYETTSPAPVLVAEGEQVTIPCTVMTHSWPMVSIRARFCRSHDGSDELILDAVKGHRLMNGLQYRLPYATWNFSQLHLGQIFSLTFNVSTDTAGMYECVLRNYSHGLIMQRFVILTQLETLSRPDEPCCTPALGRYSLGDQIWSPTPWRLRNHDCGMYRGFQRNYFYIGRADAEDCWKPACPDEEPDRCWTVIQRYRLPGDCYRSQPHPPKFLPVTPAPPADIDTGMSPWATR
# Target: the molecule itself
# Assay: cryo-EM structure
protein,measurement,value
B1,stoichiometry N,2

# Reference: article PMC11482907 (bioRxiv, 2024)
